Assay results from article PMC4474532.

Biological target: PERK luminal domain W165A (UniProt Q9NZJ5)
Test: sedimentation velocity AUC

PERK luminal domain W165A, sequence (Q9NZJ5 105-403 W164A/Q166R): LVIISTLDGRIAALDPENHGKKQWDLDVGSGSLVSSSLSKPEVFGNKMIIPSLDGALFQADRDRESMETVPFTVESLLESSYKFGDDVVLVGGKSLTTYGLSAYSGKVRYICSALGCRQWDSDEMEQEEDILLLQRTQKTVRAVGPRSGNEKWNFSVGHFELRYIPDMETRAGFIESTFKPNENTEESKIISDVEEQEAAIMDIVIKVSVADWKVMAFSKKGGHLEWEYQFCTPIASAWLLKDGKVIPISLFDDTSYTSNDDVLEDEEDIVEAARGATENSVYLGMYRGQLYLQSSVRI

- other: % (change in tetramer against wild-type) (parent: 0): -23%
- other: tetramer (relative to dimer = 1) (parent: 0.73): 0.56
Substance: human PERK luminal domain (residues 105–403) (from UniProt Q9NZJ5) W165A
